Literature values as cited in paper PMC2919054.

Target: ILT7 (Homo sapiens) (UniProt P59901)
Test: SPR

UniProt P59901, sequence (P59901 24-499): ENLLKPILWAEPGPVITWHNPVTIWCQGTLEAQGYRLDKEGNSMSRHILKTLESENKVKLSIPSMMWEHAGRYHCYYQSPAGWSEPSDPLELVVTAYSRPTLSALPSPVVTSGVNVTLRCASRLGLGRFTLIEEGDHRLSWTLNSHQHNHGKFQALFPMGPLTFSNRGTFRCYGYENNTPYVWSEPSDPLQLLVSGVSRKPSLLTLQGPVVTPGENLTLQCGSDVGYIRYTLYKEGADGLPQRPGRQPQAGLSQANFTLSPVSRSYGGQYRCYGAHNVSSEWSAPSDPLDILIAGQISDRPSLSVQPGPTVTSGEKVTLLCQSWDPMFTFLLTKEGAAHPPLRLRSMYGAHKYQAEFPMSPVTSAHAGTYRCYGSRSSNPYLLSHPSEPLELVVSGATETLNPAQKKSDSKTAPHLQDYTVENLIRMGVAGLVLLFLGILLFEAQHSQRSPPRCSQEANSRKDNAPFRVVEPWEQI

Question: For BST2 (from UniProt Q10589), which Kd is on record?
Answer: 1000 nM
